Test results taken from US20110124841A1 (published 2011).
MPEG 20 kDa = 20 kDa MPEG from MPEG iodoacetamide

B1: PEGylated SB C-protein (residues 388 to 453 of SEQ ID NO:1) (other)
chain: GTLEHHHHHHGSPEIEKLSQSDIYWDPIVSITETGVEEVFDLTVPGPRNFVANDIIVHNSGGGC(MPEG 20 kDa)GP
B2: PEGylated SG C-protein (residues 388 to 449 of SEQ ID NO:3) (other)
chain: GTLEHHHHHHGSEAVLNYNHRIVNIEAVSETIDVYDIEVPHTHNFALASGVFVHNSAGGC(MPEG 20 kDa)GP

How the values were obtained:
[1] = target: SB N-protein (SEQ ID NO:2); test: cell-based or functional assay
[2] = target: SG N-protein (SEQ ID NO:4); test: cell-based or functional assay

Row | Binder | efficiency of the trans-splicing reaction, from SDS-PAGE protein band intensity; molar ratio approximately 1 [1] | efficiency of the trans-splicing, from SDS-PAGE protein band intensity; room temperature, molar ratio of C-protein to N-protein approximately 1 (Lane 9) [2] | efficiency of the trans-splicing, from SDS-PAGE protein band intensity; room temperature, molar ratio of C-protein to N-protein approximately 5 (Lane 13) [2]
1 | B1 | ~30% | – | –
2 | B2 | – | ~50% | ~90%
